We go through 23 sequences from the DeepSol protein solubility set.

The nature of this data set: soluble on expression in E. coli; label from the status in PepcDB or PDB records.
As to “MGSDKIHHHHHHMADLKKQIASGKIAPVYFFQGPESWLKEEIETQLKAAIFPSENEAALNTLVLYGPDLTLGQIVSAASEYPMFTEKKLVVVRQFDKLKKVTDKTESQRQEKSLLSYLSDPPSFTVLVLDADEIEKTELEKAPYKHLKAFRHDFGAIKNAEIFAAERAREAGWEFEPEALKTFSGYIEPSSRLICQEIEKLTLYASNKRPERRITLDDVCDCVGISRKYNVFELEKALVSKNLRQCSGIALMIMEQEGQKEGLMNIVRYLTTFFLRIWKLQTPGAQQLSLQETAAMLGMYGRQEYFAKNFIGYARQFSAAETENAILALRDADAALKGIIPSPDDRFTLLKLMQQLFN”, the “soluble on expression in E. coli” value was “not soluble”.
For “MKHHHHHHPMVKEYKTITQIAGPLIFVEKTEPVGYNEIVNIKMGDGTVRRGQVLDSSADIVVVQVFEGTGGLDKDCGVIFTGETLKLPASVDLLGRILSGSGEPRDGGPRIVPDQLLDINGAAMNPYARLPPKDFIQTGISTIDGTNTLVRGQKLPIFSASGLPHNEIALQIARQASVPGSESAFAVVFAAMGITNEEAQYFMSDFEKTGALERAVVFLNLADDPAVERIVTPRMALTAAEYLAYEHGMHVLVILTDITNYAEALRQMGAARNEVPGRRGYPGYMYTDLATLYERAGIVKGAKGSVTQIPILSMPGDDITHPIPDLSGYITEGQIVVARELHRKGIYPPINVLPSLSRLMNSGIGAGKTREDHKAVSDQMYAGYAEGRDLRGLVAIVGKEALSERDTKFLEFADLFEDKFVRQGWNENRTIEDTLEIGWQILTHLPENQLGRIDNKYIQKYHPAHRKAK” the value was “soluble”.
Consider “MSVLQRIVSRRTQLSESGRQIGDWVLANAAQAAAMTSQDLAAWANVSQSSIVKFTQRLGFKGYSEFKLALTEELGRKQVMVNQPLHSNILADDPVAVIAQKLVQTKTEAMFHTTNALRLDEFSEAISWIQQAVRVQIIGIGGSALVAKDLAFKLLKLGITALTEQDSHVQIATARTLHSQDVLIAISFSGEKREILIAAEAAKQQGAKVIALTTPNKNRLREIADLALDTIADETQHRSSAIASRTAQNVLTDLIFLTLTQQRETSARQLIDDISSDIRQMR”, for which the “soluble on expression in E. coli” value is “not soluble”.
The value for “MNYKITTLVENCVYGRKLQAEHGLSLYIETPENRLLFDTGASDLFIRNARLLNIDLQKVDYLVLSHGHSDHTGGLRHFLELNAEATVVCKREVFFSKFKDERENGMKYTRSLDLSRFRFIDELTELVPGVFLFPSVDIIDPKDTHFERFWIQKEDGSRVPDTFPDELAMVLVEPEGLSILSACSHRGITNILRTVRTAFPELPCNLLLGGFHIHNAEESKYQVIADYLHEYLPQKIGVCHCTGVDKYAFFYKDFGDRIFYNHTGKLIQTDSLL” was “not soluble”.
Turning to “MSQPCPHCGFQFNCICSLVPKLTSKHEILLLMHPNELTRDTNTGQLLQHCQLNVEQAIWDRKQPPAELLTRLANPSLYPVILFPSEESITLEHVEMQSQQQAKMPLYIILDATWQEARKMINKSRWLEGIPTMGLSALADSQYQLRRNQQQGNLCTFEVAAHLLGQLGEQDNQQQMHTFFTHYLALFQAEKSGHALKSSPRSLEAAALEHHHHHH”, the “soluble on expression in E. coli” value was “not soluble”.
The value for “MSLSEELQQKLRDQLWEVANRLRGNMSASDFMYFTLGFIFYKYLSEKIEKYANNALADDDITFKELWETDDADAIELQEEAKNQCLENIGYFIEPQFLFSSVIEAIKRKENILPMLERSLKRIEDSTLGQDSEDDFGGLFSDIDLASPKLGKTADDKNTLVSNVLLALDDINFGLEASQEIDILGDAYEYMISQFAAGAGKKAGEFYTPQEVSRILAEIVAIGHQRLRNVYDPTCGSGSLLLRAASIGNAVDIYGQEKNPTTYNLARMNMLLHGIRFSNFKIENGDTLEWDAFGDTQFDAVVANPPFSAEWSAADKFNTDDRFSKAGRLAPRKTADYAFILHMIYHLNEGGTMACVAPHGVLFRGNAEGVIRRFLIEKKNYVDAIIGLPANIFYGTSIPTCILVFKKCRKEDDNILFIDASKEFEKVKTQNKLREQHIQKIVETYRDRKEIEKYSHLASLQEIAENDYNLNIPRYVDTFEEEEPIDIKAVMAEIKELEAKRAELDKEIEVYLKELGIVEEGHHHHHH” was “soluble”.
Regarding “MAHHHHHHMSLLKADQLRRDLFIKYSDKIAELLGETEECSPTEEQREKEEIETTEQRGLSSLPKRFRISYPRQHLLRQRAMQMPPAADVGDAENSPASASNSTCPPLGETATDEDENVETIWVELDEEEKRPVYNEPYPSVKRMMRRMQDESLRLLMREARIPVTPHQGDAYLLQRMEVLQQLEKNIGDDRIKILARLQKMDGKLHTCE”, the “soluble on expression in E. coli” value was “soluble”.
For the sequence “MGHVVKVALLGLGEVGEKFAEHFLEKIQEDRANVEIVAVAHRDLESPVALGFVHSKVPVFKDAMEVVTLGAKVDIIFDLTGDPEVRRKLRIALQESHNQHTVIAPEVVAHLLWNFFGEGELPRSNRTGY”, the “soluble on expression in E. coli” value was “soluble”.
The value for “MRKTLTALFIAAALPTFAMAAPAANDLPPPPMEGGHMMGQHGPRHGGPMKELDLTREQRQQMGKLMGEQMKARHEITQRYLAKLPAAEQKALKDELKASHEKTQKDIRALLTPEQQKKFDELQKKREQRKAEWAEFQQWKADKKSNLEHHHHHH” was “soluble”; that for “MKKMFLILASAVVSLTACSKDSGDDDSPPIEKQPFNAVIKDGFKDENGVDLLPPRNIGNIKVGDYIPYNVTITDEVAEQEGETYRVVASTYDEGTHQERSVSYDIYLADKEDPTKMVLLENPEQLTFNKRGTYSFFIYPKEAGTYNLRFLLEKSVNNQKIGTSAIPIVTFNAVRITAYSHGYFTGKWKWEWSDSFIPILEEHSVNRRKFFFKIDDGSTEKDKYLQPEKAGIFYFTEYNGDNRGPLSFTVGAEYEYYPEQERTRAIQYLIFLLLK” was “not soluble”; that for “MGSDKIHHHHHHMKIAITGKGGVGKTFIASTLMRLFEKNGFKVIGVDCDPNPTLALAFGVEEEIVPLSKRHDIIEERTGAKPGTYGNIFKINPKVDDLIDKVGYKIGNITLLVMGTIEEGGEGCVCPASVLLRRLLRHLILKRDEVVILDMEAGIEHFGRKTIDTVDLMLIVIEPTKKSLITAKRMKKLANDLGIKNLGVIVNKVRNEDKELLKDIIKEELGLEVLGFVPYDEEVIKSEFLGKPINLDSKAAKEIEKIFNYIIKLKNTT” was “not soluble”.
On to “ATFTSLANQAASREDYEFHRTVLLASGGLLLSGDPLPEITPFASKTLAKLMLRQRRSQESAKFTALSLSHAFLKLTDKNDLHCLFNYANHNATEFTLTADQPVDWYDYWTGEKLNQDPCQLLLVSVDRGLNAKAIVTA”, for which the “soluble on expression in E. coli” value was “not soluble”.
For “RIIEINPEEGWVRVEAGVIKDQLNQFLKPYGYFFAPELSTSNRATLGGMINTDASGQGSLVYGKTSDHVLGLRAVLMGGDILDTQAVPVALAETLGNTPSTVGRIYNTVYQRCKAQRDLIIDKFPKLNRFLTGYDLRHVFNDEMSEFDLTRILTGSEGTLAFITEARLDITRLP” the value was “not soluble”; for “MTSLSQFEPLFLEFMQQEMQVDAAHDIEHVKRVVKTAKQLCDEENADIAIVLPAAYLHDCFTYPKDHPNRKQSSAIAAKKAIAYLESIQYPQHYHDAIAHAIEAHSFSANIRPNTLEAQIVQDADRLDALGAIGVTRCIQVSTHFNAQLYNDNDMFAKERELNDKQFTVDHFQTKLFKIADTMNTESAKLEANKRKAFMQTYLKQLHDEVTALEHHHHHH”, “soluble”; for “MGSDKIHHHHHHMKKVLVIRNDKLGDFMLAWPAFAMLKASDPSLKLTALVPTYTAEIARACPYLDEVIIDVPKGDKAAFQRLVNDIKAQRFDAMISFFSNTHNAKLAWKCRIPYRLAPATKWVQFFYNHRLVQRRSQSAKPEFAYNLDLARRFLQDQSIAVVEPRPPYLSFPKSAVDFQREFLCLQLNVDSSKKWIFVHSGSGGSANNLSLAQYAALIRGLLAQFDAYVILTAGPNESEKAHELAGLVQDARVVVYDKNKGLVDFAQSLACADLFIAGSTGPLHLSGALNVPTIGFYPSRRSATPLRWQPINDEAKHLAFCPSNDKASQTDLSKISIEEKLAKMIRFITKVWHAADK”, “not soluble”.
The value for “GSMAAAGNKSINAKLVLLGDVGAGKSSLVLRFVKDQFVEFQESTIGAAFFSQTLAVNDATVKFEIWDTAGQERYHSLAPMYYRGAAAAIIVFDVTNQASFERAKKWVQELQAQGNPNMVMALAGNKSDLLDARKVTAEDAQTYAQENGLFFMETSAKTATNVKEIFYEIARRLPRVQPTEN” was “soluble”; that for “DIGCYTLGNAPPLELIDTCLCMGAGISIAGGISRTTKNSKNVAFIGDSTFFHSGIPAVINAVYNNADVTIAVLDNRTTAMTGHQPHPGTGKTALGKPTKLIDIEGILKSCGVEFVKTVSADDFSACKEISKEVIEYNGPSAVVFRGNCVSLVKSDKKYVIDK” was “not soluble”.
Turning to “MSICDPALRNALRTLKLSGMLDTLDARLAQTRNGDLGHLEFLQALREDEIARRESAALTRRLRRAKFEAQATFEDFDFTANPKLPGAMLRDLAALRWLDAGESVILHGPVGVGKTHVAQALVHAVARRGGDVRFAKTSRMLSDLAGGHADRSWGQRIREYTKPLVLILDDFAMREHTAMHADDLYELISDRAITGKPLILTSNRAPNNWYGLFPNPVVAESLLDRLINTSHQILMDGPSYRPRKRPGRTTS”, the “soluble on expression in E. coli” value is reported as “not soluble”.
The value for “MAHHHHHHMKEGDFEGAEERFIKAIEEIEKFPEGKVDPKLVEQMRELLEDAREMKDGRFKEIQEFIQEQFAVNETERLPTAHEFYGDVDEQQHPFVSRLPNDGECSALSMPQSNTNPVQWSEHSNSMSLSLFPSQVNGRSSEASNSQPVQHVVARRKPKPLQKQKALEVESSGNVSTGSDMKRFRAES” was “soluble”; that for “MGSDKIHHHHHHAADWQLEKVVELSRHGIRPPTAGNREAIEAATGRPWTEWTTHDGELTGHGYAAVVNKGRAEGQHYRQLGLLQAGCPTAESIYVRASPLQRTRATAQALVDGAFPGCGVAIHYVSGDADPLFQTDKFAATQTDPARQLAAVKEKAGDLAQRRQALAPTIQLLKQAVCQADKSCPIFDTPWQVEQSKSGKTTISGLSVMANMVETLRLGWSENLPLSQLAWGKITQARQITALLPLLTENYDLSNDVLYTAQKRGSVLLNAMLDGVKPEANPNVRWLLLVAHDTNIAMVRTLMNFSWQLPGYSRGNIPPGSSLVLERWRNAKSGERYLRVYFQAQGLDDLRRLQTPDAQHPMLRQEWHQPGCRQTDVGTLCPFQAAITALGQRIDRSSAPAVAMVLP” was “not soluble”; that for “MSHKLTILPFLIKFTPKFPQSIDHDEHGLNVYAFDLDHTIIKPKSPNISFSRSASDWQFINFNSKKSTLDYLCNIIDNDPTAVIVIFSNQGGVITVPRTSKSCTKYTNKILLFLKAIKNDERGETLSHRLWLYAAPKRPKTFAANHSKITFASLGESYNNDPNIFEKVRKPMTGMVEFFKRDLESAYRVSEQISPIKLNWIYYCGDAAGRKKDFSDSDIKFAENLHVEFKYPEEIFHG” was “soluble”.
The value for “VPQIDTRDCGPAVLASVAKHYGSNYSIAYLRELSKTNKQGTTALGIVEAAKKLGFETRSIKADMTLFDYNDLTYPFIVHVIKGKRLQHYYVVYGSQNNQLIIGDPDPSVKVTRMSKERFQSEWTGLAIFLAPQPN” was “not soluble”; that for “MGSDKIHHHHHHMTVRQDIHSSGIPVLCLSCAARLRGVCAALDPNHLVGLAKTSSRHKLEPGVELIADAEAVDSYSNLLSGVVKLTKCLSDGRQQIVGLRFAPDFLGRPFKVKSTINVEAATSVSLCSFPKAAVERIMKESPGLEHRLLKQTLDELDEALEWMVTLGRKTAPEKVASFLLMIARNMDSSIDPAAGSACFDLPLTRADISDFLGLTNETVSRQLTRLRADGVIRIENKRHVTVDSMSRLEQRCGGRGARQPAFE” was “not soluble”.
